The source of these data is patent publication CN107417789A (INST RES BIOMEDICINE, dated 2017).

The target in the assay is T1, X-31 (H3N2) 菠萝蛋白酶释放的HA (BHA) (influenza A virus X-31 (H3N2), UniProt P03437 17-344; P03437 346-520).
T1 construct: domain: 菠萝蛋白酶释放的HA (BHA)
Briefly: complex formation and size exclusion chromatography.

B1: FI6变体3 Fab片段 (Fab, V domains shown)
VH: QVQLVESGGGVVQPGRSLRLSCAASGFTFSTYAMHWVRQAPGKGLEWVAVISYDANYKYYADSVKGRFTISRDNSKNTLYLQMNSLRAEDTAVYYCAKDSQLRSLLYFEWLSQGYFDYWGQGTLVTVSS
VL: not shown
With B1, the binding result was “binds”.
